Data as given in patent US20170165335A1 (IMMATICS BIOTECHNOLOGIES, published 2017).

B1: NLKGTFATL (peptide)
peptide: NLKGTFATL
notes: synthetic peptide
B2: SSFGGLGGGSV (peptide)
peptide: SSFGGLGGGSV
notes: synthetic peptide
B3: SLAAAAGKQELA (peptide)
peptide: SLAAAAGKQELA
notes: synthetic peptide
B4: FLVDGSSAL (peptide)
peptide: FLVDGSSAL
notes: synthetic peptide
B5: HLMDQPLSV (peptide)
peptide: HLMDQPLSV
notes: synthetic peptide
B6: YLYDSETKNA (peptide)
peptide: YLYDSETKNA
notes: synthetic peptide
B7: FLAQQESEI (peptide)
peptide: FLAQQESEI
notes: synthetic peptide
B8: VMDSGDGVTHTV (peptide)
peptide: VMDSGDGVTHTV
notes: synthetic peptide
B9: VLISLKQAPLV (peptide)
peptide: VLISLKQAPLV
notes: synthetic peptide
B10: SLKEEVGEEAIV (peptide)
peptide: SLKEEVGEEAIV
notes: synthetic peptide
B11: SLKEEVGEEAI (peptide)
peptide: SLKEEVGEEAI
notes: synthetic peptide
B12: KLFNLSKEDDV (peptide)
peptide: KLFNLSKEDDV
notes: synthetic peptide
B13: RLAGDGVGAV (peptide)
peptide: RLAGDGVGAV
notes: synthetic peptide
B14: RLDQRVPQI (peptide)
peptide: RLDQRVPQI
notes: synthetic peptide
B15: YLEEDVYQL (peptide)
peptide: YLEEDVYQL
notes: synthetic peptide
B16: SLDSRLELA (peptide)
peptide: SLDSRLELA
notes: synthetic peptide
B17: SLAAAAGKQEL (peptide)
peptide: SLAAAAGKQEL
notes: synthetic peptide
B18: ALMLQGVDL (peptide)
peptide: ALMLQGVDL
notes: synthetic peptide
B19: VLAKPGVISV (peptide)
peptide: VLAKPGVISV
notes: synthetic peptide
B20: GLLEELVTV (peptide)
peptide: GLLEELVTV
notes: synthetic peptide
B21: SVDVSPPKV (peptide)
peptide: SVDVSPPKV
notes: synthetic peptide
B22: GLLKKINSV (peptide)
peptide: GLLKKINSV
notes: synthetic peptide
B23: FLFDGSANLV (peptide)
peptide: FLFDGSANLV
notes: synthetic peptide
B24: VLLSEIEVA (peptide)
peptide: VLLSEIEVA
notes: synthetic peptide
B25: LLAGQTYHV (peptide)
peptide: LLAGQTYHV
notes: synthetic peptide
B26: YLQGQRLDNV (peptide)
peptide: YLQGQRLDNV
notes: synthetic peptide
B27: YLDAMMNEA (peptide)
peptide: YLDAMMNEA
notes: synthetic peptide
B28: KLVDKSTEL (peptide)
peptide: KLVDKSTEL
notes: synthetic peptide
B29: SLANNVTSV (peptide)
peptide: SLANNVTSV
notes: synthetic peptide
B30: TLLSNLEEA (peptide)
peptide: TLLSNLEEA
notes: synthetic peptide
B31: RMVEEIGVEL (peptide)
peptide: RMVEEIGVEL
notes: synthetic peptide
B32: FLKSGDAAIV (peptide)
peptide: FLKSGDAAIV
notes: synthetic peptide
B33: AQQESEIAGI (peptide)
peptide: AQQESEIAGI
notes: synthetic peptide
B34: SLQEEHVAVA (peptide)
peptide: SLQEEHVAVA
notes: synthetic peptide
B35: APVNVTTEVKSV (peptide)
peptide: APVNVTTEVKSV
notes: synthetic peptide
B36: TFAPVNVTTEVKSV (peptide)
peptide: TFAPVNVTTEVKSV
notes: synthetic peptide
B37: TLDGAAVNQV (peptide)
peptide: TLDGAAVNQV
notes: synthetic peptide
B38: FILDSAETTTL (peptide)
peptide: FILDSAETTTL
notes: synthetic peptide
B39: IVDDLTINL (peptide)
peptide: IVDDLTINL
notes: synthetic peptide
B40: VVDEGPTGV (peptide)
peptide: VVDEGPTGV
notes: synthetic peptide
B41: VLLDKIKNLQV (peptide)
peptide: VLLDKIKNLQV
notes: synthetic peptide
B42: SLSAFTLFL (peptide)
peptide: SLSAFTLFL
notes: synthetic peptide
B43: ALTQTGGPHV (peptide)
peptide: ALTQTGGPHV
notes: synthetic peptide
B44: YLQGQRLDNVV (peptide)
peptide: YLQGQRLDNVV
notes: synthetic peptide
B45: SLLDDELMSL (peptide)
peptide: SLLDDELMSL
notes: synthetic peptide
B46: FLGKVVIDV (peptide)
peptide: FLGKVVIDV
notes: synthetic peptide
B47: MLMPVHFLL (peptide)
peptide: MLMPVHFLL
notes: synthetic peptide
B48: KMDASLGNLFA (peptide)
peptide: KMDASLGNLFA
notes: synthetic peptide
B49: FLQEYLDAI (peptide)
peptide: FLQEYLDAI
notes: synthetic peptide
B50: KMFFLIDKV (peptide)
peptide: KMFFLIDKV
notes: synthetic peptide
B51: LLVDDSFLHTV (peptide)
peptide: LLVDDSFLHTV
notes: synthetic peptide
B52: ALLSGLREA (peptide)
peptide: ALLSGLREA
notes: synthetic peptide
B53: FLYKIIDEL (peptide)
peptide: FLYKIIDEL
notes: synthetic peptide
B54: FVSEIVDTV (peptide)
peptide: FVSEIVDTV
notes: synthetic peptide
B55: GLLDYATGAIGSV (peptide)
peptide: GLLDYATGAIGSV
notes: synthetic peptide
B56: NLVEKTPALV (peptide)
peptide: NLVEKTPALV
notes: synthetic peptide
B57: FLVSNMLLAEA (peptide)
peptide: FLVSNMLLAEA
notes: synthetic peptide
B58: FLLDGSEGV (peptide)
peptide: FLLDGSEGV
notes: synthetic peptide
B59: ALLTFMEQV (peptide)
peptide: ALLTFMEQV
notes: synthetic peptide
B60: GLAAFKAFL (peptide)
peptide: GLAAFKAFL
notes: synthetic peptide
B61: ALAAILTRL (peptide)
peptide: ALAAILTRL
notes: synthetic peptide

The binders below were run against T1, peptide-receptive MHC class I molecule (HLA-A*02:01 with beta-2-microglobulin) of the UV-ligand exchange assay (human) (assay: UV-ligand exchange + anti-b2m ELISA; peptide exchange yield grade (+ = <20%)).
From the text: (§1) Candidate peptides for T cell based therapies according to the present invention were further tested for their MHC binding capacity (affinity). The individual peptide-MHC complexes were produced by UV-ligand exchange, where a UV-sensitive peptide is cleaved upon UV-irradiation, and exchanged with the peptide of interest as analyzed. Only peptide candidates that can effectively bind and stabilize the peptide-receptive MHC molecules prevent dissociation of the MHC complexes. To determine the yield of the exchange reaction, an ELISA was performed based on the detection of the light chain (β2m) of stabilized MHC complexes. The assay was performed as generally described in Rodenko et al. (Rodenko et al., 2006).
(§2) 96 well MAXISorp plates (NUNC) were coated over night with 2 ug/ml streptavidin in PBS at room temperature, washed 4× and blocked for 1 h at 37° C. in 2% BSA containing blocking buffer. Refolded HLA-A*02:01/MLA-001 monomers served as standards, covering the range of 15-500 ng/ml. Peptide-MHC monomers of the UV-exchange reaction were diluted 100 fold in blocking buffer. Samples were incubated for 1 h at 37° C., washed four times, incubated with 2 ug/ml HRP conjugated anti-β2m for 1 h at 37° C., washed again and detected with TMB solution that is stopped with […]. Absorption was measured at 450 nm. Candidate peptides that show a high exchange yield (preferably higher than 50%, most preferred higher than 75%) are generally preferred for a generation and production of antibodies or fragments thereof, and/or T cell receptors or fragments thereof, as they show sufficient avidity to the MHC molecules and prevent dissociation of the MHC complexes.

peptide exchange yield [%] | Binder
< 20 | B1
< 20 | B2
< 20 | B3

These binders were tested against T1, peptide-receptive MHC class I molecule … (assay: UV-ligand exchange + anti-b2m ELISA; peptide exchange yield grade (++ = 20%-49%)).
From the text: as §1, §2

peptide exchange yield [%] | Binder
20 to 49 | B4
20 to 49 | B5
20 to 49 | B6
20 to 49 | B7
20 to 49 | B8
20 to 49 | B9
20 to 49 | B10
20 to 49 | B11
20 to 49 | B12
20 to 49 | B13
20 to 49 | B14
20 to 49 | B15
20 to 49 | B16
20 to 49 | B17
20 to 49 | B18
20 to 49 | B19
20 to 49 | B20
20 to 49 | B21
20 to 49 | B22
20 to 49 | B23
20 to 49 | B24

peptide exchange yield [%] | Binder
20 to 49 | B25
20 to 49 | B26
20 to 49 | B27
20 to 49 | B28
20 to 49 | B29
20 to 49 | B30
20 to 49 | B31
20 to 49 | B32
20 to 49 | B33
20 to 49 | B34
20 to 49 | B35
20 to 49 | B36
20 to 49 | B37
20 to 49 | B38
20 to 49 | B39
20 to 49 | B40
20 to 49 | B41
20 to 49 | B42
20 to 49 | B43
20 to 49 | B44
20 to 49 | B45

These binders were tested against T1, peptide-receptive MHC class I molecule … (assay: UV-ligand exchange + anti-b2m ELISA; peptide exchange yield grade (++++ = >=75%)).
From the text: as §1, §2

peptide exchange yield [%] | Binder
≥ 75 | B46
≥ 75 | B47
≥ 75 | B48

The binders below were run against T1, peptide-receptive MHC class I molecule … (assay: UV-ligand exchange + anti-b2m ELISA; peptide exchange yield grade (+++ = 50%-75%)).
From the text: as §1, §2

peptide exchange yield [%] | Binder
50 to 75 | B49
50 to 75 | B50
50 to 75 | B51
50 to 75 | B52
50 to 75 | B53
50 to 75 | B54
50 to 75 | B55
50 to 75 | B56
50 to 75 | B57
50 to 75 | B58
50 to 75 | B59
50 to 75 | B60
50 to 75 | B61
